Experimental data: publication PMC13022675

Molecular target: GFP-tagged MR1A (MR1-GFP) expressed in clonal cell line D6 (D6ins and D6del mutants) (UniProt Q95460)
Chain of UniProt Q95460 (Q95460 23-341, stated change not applied): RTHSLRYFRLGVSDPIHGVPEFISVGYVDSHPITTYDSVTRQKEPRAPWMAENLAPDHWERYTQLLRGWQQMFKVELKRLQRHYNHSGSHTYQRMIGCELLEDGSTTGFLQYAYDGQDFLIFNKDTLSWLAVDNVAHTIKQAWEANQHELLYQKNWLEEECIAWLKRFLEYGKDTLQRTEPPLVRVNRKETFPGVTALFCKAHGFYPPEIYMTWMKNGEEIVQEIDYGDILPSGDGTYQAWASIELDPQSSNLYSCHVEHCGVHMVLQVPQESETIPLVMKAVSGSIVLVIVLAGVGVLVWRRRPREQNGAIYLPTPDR

β2-microglobulin (from UniProt P61769 21-119) (natural protein)
fully folded MR1 (antibody clone 26.5) remaining at the cell surface 6 h after brefeldin A, flow cytometry: 20%
